Results: US20200216522A1 (DENALI THERAPEUTICS, published 2020)

Assays:
Test in all cases: peptide array
[1] = target: T1, Peptide_064 (human)
T1 peptide: SKVTSKCGSLGNIHH
Method in brief: (§1)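 Overlapping 15-mer peptides (5-aa offset) spanning human 2N4R Tau spotted in triplicate on slides; antibodies bound 2 h at room temperature in 3% BSA-TBST (chimeric IgG 5 μg/mL; mouse IgG 30 μg/mL). Detection 1 h with fluorescent anti-human (568 nm) or anti-mouse (647 nm) secondary; fluorescence imaging aligned to array map.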

[2] = target: T2, Peptide_023 (human)
T2 peptide: TPSLEDEAAGHVTQA
Method in brief: as §1

[3] = target: T3, Peptide_082 (human)
T3 peptide: RHLSNVSSTGSIDMV
Method in brief: as §1

[4] = target: T4, Peptide_004 (human)
T4 peptide: GTYGLGDRKDQGGYT
Method in brief: as §1

[5] = target: T5, Peptide_070 (human)
T5 peptide: FKDRVQSKIGSLDNI
Method in brief: as §1

[6] = target: T6, Peptide_049 (human)
T6 peptide: SRLQTAPVPMPDLKN
Method in brief: as §1

[7] = target: T7, Peptide_054 (human)
T7 peptide: LKHQPGGGKVQIINK
Method in brief: as §1

[8] = target: T8, Peptide_056 (human)
T8 peptide: QIINKKLDLSNVQSK
Method in brief: as §1

[9] = target: T9, Peptide_011 (human)
T9 peptide: PTEDGSEEPGSETSD
Method in brief: as §1

[10] = target: T10, Peptide_051 (human)
T10 peptide: PDLKNVKSKIGSTEN
Method in brief: as §1

[11] = target: T11, Peptide_048 (human)
T11 peptide: PSSAKSRLQTAPVPM
Method in brief: as §1

[12] = target: T12, Peptide_039 (human)
T12 peptide: SGDRSGYSSPGSPGT
Method in brief: as §1

[13] = target: T13, Peptide_068 (human)
T13 peptide: QVEVKSEKLDFKDRV
Method in brief: as §1

[14] = target: T14, Peptide_012 (human)
T14 peptide: SEEPGSETSDAKSTP
Method in brief: as §1

[15] = target: T15, Peptide_086 (human)
T15 peptide: ATLADEVSASLAKQG
Method in brief: as §1

[16] = target: T16, Peptide_085 (human)
T16 peptide: DSPQLATLADEVSAS
Method in brief: as §1

[17] = target: T17, Peptide_035 (human)
T17 peptide: IPAKTPPAPKTPPSS
Method in brief: as §1

[18] = target: T18, Peptide_025 (human)
T18 peptide: HVTQARMVSKSKDGT
Method in brief: as §1

[19] = target: T19, Peptide_047 (human)
T19 peptide: TPPKSPSSAKSRLQT
Method in brief: as §1

[20] = target: T20, Peptide_057 (human)
T20 peptide: KLDLSNVQSKCGSKD
Method in brief: as §1

[21] = target: T21, Peptide_007 (human)
T21 peptide: MHQDQEGDTDAGLKE
Method in brief: as §1

[22] = target: T22, Peptide_060 (human)
T22 peptide: NIKHVPGGGSVQIVY
Method in brief: as §1

[23] = target: T23, Peptide_032 (human)
T23 peptide: GAAPPGQKGQANATR
Method in brief: as §1

[24] = target: T24, Peptide_084 (human)
T24 peptide: SIDMVDSPQLATLAD
Method in brief: as §1

[25] = target: T25, Peptide_066 (human)
T25 peptide: GNIHHKPGGGQVEVK
Method in brief: as §1

[26] = target: T26, Peptide_073 (human)
T26 peptide: THVPGGGNKKIETHK
Method in brief: as §1

[27] = target: T27, Peptide_079 (human)
T27 peptide: EIVYKSPVVSGDTSP
Method in brief: as §1

[28] = target: T28, Peptide_033 (human)
T28 peptide: GQKGQANATRIPAKT
Method in brief: as §1

[29] = target: T29, Peptide_042 (human)
T29 peptide: PGSRSRTPSLPTPPT
Method in brief: as §1

[30] = target: T30, Peptide_020 (human)
T30 peptide: EIPEGTTAEEAGIGD
Method in brief: as §1

[31] = target: T31, Peptide_019 (human)
T31 peptide: AQPHTEIPEGTTAEE
Method in brief: as §1

[32] = target: T32, Peptide_030 (human)
T32 peptide: DGKTKIATPRGAAPP
Method in brief: as §1

[33] = target: T33, Peptide_037 (human)
T33 peptide: TPPSSGEPPKSGDRS
Method in brief: as §1

[34] = target: T34, Peptide_031 (human)
T34 peptide: IATPRGAAPPGQKGQ
Method in brief: as §1

[35] = target: T35, Peptide_069 (human)
T35 peptide: SEKLDFKDRVQSKIG
Method in brief: as §1

B1: chimeric IgG clone 1D10 (antibody, V domains shown)
VH: EVQLQQSGAELVRPGASVKLSCTASGFNIKDSLMHWMKQRPEQGLEWIGWIDPEDGETKYAPKFQDKATLTADTSSNAAYLQLSSLTSEDTAIYYCVRGDWDGGYWGQGTTLTVSS
VL: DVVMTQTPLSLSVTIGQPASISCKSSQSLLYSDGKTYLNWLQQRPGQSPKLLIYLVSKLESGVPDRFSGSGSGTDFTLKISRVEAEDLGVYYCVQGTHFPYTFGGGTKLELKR
notes: mouse-human chimeric IgG from HEK293
binding result [1]: no binding (tested: 5 ug/mL)
binding result [2]: no binding (tested: 5 ug/mL)
binding result [3]: no binding (tested: 5 ug/mL)
binding result [4]: no binding (tested: 5 ug/mL)
binding result [5]: binds
binding result [6]: no binding (tested: 5 ug/mL)
binding result [7]: no binding (tested: 5 ug/mL)
binding result [8]: no binding (tested: 5 ug/mL)
binding result [9]: no binding (tested: 5 ug/mL)
binding result [10]: binds
binding result [11]: no binding (tested: 5 ug/mL)
binding result [12]: no binding (tested: 5 ug/mL)
binding result [13]: no binding (tested: 5 ug/mL)
binding result [14]: no binding (tested: 5 ug/mL)
binding result [15]: no binding (tested: 5 ug/mL)
binding result [16]: no binding (tested: 5 ug/mL)
binding result [17]: no binding (tested: 5 ug/mL)
binding result [18]: no binding (tested: 5 ug/mL)
binding result [19]: no binding (tested: 5 ug/mL)
binding result [20]: no binding (tested: 5 ug/mL)
binding result [21]: no binding (tested: 5 ug/mL)
binding result [22]: no binding (tested: 5 ug/mL)
binding result [23]: no binding (tested: 5 ug/mL)
binding result [24]: no binding (tested: 5 ug/mL)
binding result [25]: no binding (tested: 5 ug/mL)
binding result [26]: no binding (tested: 5 ug/mL)
binding result [27]: no binding (tested: 5 ug/mL)
binding result [28]: no binding (tested: 5 ug/mL)
binding result [29]: no binding (tested: 5 ug/mL)
binding result [30]: no binding (tested: 5 ug/mL)
binding result [31]: no binding (tested: 5 ug/mL)
binding result [32]: no binding (tested: 5 ug/mL)
binding result [33]: no binding (tested: 5 ug/mL)
binding result [34]: no binding (tested: 5 ug/mL)
binding result [35]: no binding (tested: 5 ug/mL)

B2: murine anti-Tau hybridoma antibody 17G2.A1 (antibody, V domains shown)
VH: QVQLQQPGAELVGPGSSVKLSCKASGYTFINYWIDWMKQSPGQGLEWIGNIYPSDSESHYNQKFTDKATLTVDISSSTAYLQLSSLTSEDSAVYYCALYSKGYWGQGTSVTVSS
VL: DVLMTQTPLSLPVTLGDQASISCRSSQNIVHTNGNTYLEWYLQKPGQSPKLLIYKLSSRFSGVPDRFSGSGSGTDFTLKISRVEAEDLGVYYCFQGSHLPFTFGGGTKLEIKR
notes: mouse IgG from hybridoma; also called anti-Tau 17G2.A1
binding result [1]: no binding (tested: 30 ug/mL)
binding result [2]: no binding (tested: 30 ug/mL)
binding result [3]: no binding (tested: 30 ug/mL)
binding result [4]: no binding (tested: 30 ug/mL)
binding result [5]: no binding (tested: 30 ug/mL)
binding result [6]: no binding (tested: 30 ug/mL)
binding result [7]: no binding (tested: 30 ug/mL)
binding result [8]: no binding (tested: 30 ug/mL)
binding result [9]: no binding (tested: 30 ug/mL)
binding result [10]: no binding (tested: 30 ug/mL)
binding result [11]: no binding (tested: 30 ug/mL)
binding result [12]: binds
binding result [13]: no binding (tested: 30 ug/mL)
binding result [14]: no binding (tested: 30 ug/mL)
binding result [15]: no binding (tested: 30 ug/mL)
binding result [16]: no binding (tested: 30 ug/mL)
binding result [17]: no binding (tested: 30 ug/mL)
binding result [18]: no binding (tested: 30 ug/mL)
binding result [19]: no binding (tested: 30 ug/mL)
binding result [20]: no binding (tested: 30 ug/mL)
binding result [21]: no binding (tested: 30 ug/mL)
binding result [22]: no binding (tested: 30 ug/mL)
binding result [23]: no binding (tested: 30 ug/mL)
binding result [24]: no binding (tested: 30 ug/mL)
binding result [25]: no binding (tested: 30 ug/mL)
binding result [26]: no binding (tested: 30 ug/mL)
binding result [27]: no binding (tested: 30 ug/mL)
binding result [28]: no binding (tested: 30 ug/mL)
binding result [29]: no binding (tested: 30 ug/mL)
binding result [30]: no binding (tested: 30 ug/mL)
binding result [31]: no binding (tested: 30 ug/mL)
binding result [32]: no binding (tested: 30 ug/mL)
binding result [33]: no binding (tested: 30 ug/mL)
binding result [34]: no binding (tested: 30 ug/mL)
binding result [35]: no binding (tested: 30 ug/mL)
